± gives the uncertainty stated by the source.
Experiment: self-splicing fitness, log relative to wild type (ln ratio); higher = more splicing; Tetrahymena group I intron in knt gene, E. coli kanamycin selection, DiMSum; sequences stand for … in CUCUCU…GGAGGGAAAAGUUAUCAGGCAUGCACCUGGUAGCUAGUCUUUAAACCAAUAGAUUGCAUCGGUUUAAAAGGCAAGACCGUCAAAUUGCGGGAAAGGGGUCAACAGCCGUUCAGUACCAAGUCUCAGGGGAAACUUUGAGAUGGCCUUGCAAAGGGUAUGGUAAUAAGCUGACGGACAUGGUCCUAACCACGCAGCCAAGUCCUAAGUCAACAGAUCUUCUGUUGAUAUGGAUGCAGUUCACAGACUAAAUGUCGGUCGGGGAAGAUGUAUUCUUCUCAUAAGAUAUAGUCGGACCUCUCCUUAAUGGGAGCUAGCGGAUGAAGUGAUGCAACACUGGAGCCGCUGGGAACUAAUUUGUAUGCGAAAGUAUAUUGAUUAGUUUUGGAGUACUCGUGGUCG
Procedure, shortened: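 Fitness was computed with DiMSum as the error-weighted combination of replicate fold changes, kanamycin versus none, each normalised to wild type. The library randomised all eight intron nucleotides of the P1ex region, with the intron placed in the knt kanamycin-resistance gene on pET-22b(+) in E. coli BL21(DE3). Six replicate transformations were grown overnight at 37°C or 30°C on LB agar with or without 25 μg/mL kanamycin, plus 100 μg/mL carbenicillin, 50 μM IPTG and 0.2% rhamnose. Pooled colonies were amplicon-sequenced on an Illumina HiSeq 2500.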

| Sequence | self-splicing fitness (ln) (30 °C) | self-splicing fitness (ln) (37 °C) |
| --- | --- | --- |
| UUUUAGCAAUAUUACGGAGC | -2.24 ± 0.38 | -2.37 ± 0.49 |
| UUUUAGCAAUAUUACGGAGG | -2.86 ± 0.27 | -1.48 ± 0.22 |
| UUUUAGCAAUAUUACGGAGU | -2.29 ± 0.33 | -1.95 ± 0.28 |
| UUUUAGCAAUAUUACGGAUU | -1.8 ± 0.1 | -1.36 ± 0.15 |
| UUUUAGCAAUAUUACGGCAA | 0.145 ± 0.12 | -0.398 ± 0.15 |
| UUUUAGCAAUAUUACGGCCU | -1.53 ± 0.26 | -1.87 ± 0.33 |
| UUUUAGCAAUAUUACGGCGU | -1.89 ± 0.21 | -0.915 ± 0.45 |
| UUUUAGCAAUAUUACGGGUA | -1.75 ± 0.3 | -0.417 ± 0.28 |
| UUUUAGCAAUAUUACGGGUC | -3.73 ± 0.4 | -2.96 ± 0.38 |
| UUUUAGCAAUAUUACGGUCC | -2.8 ± 0.5 | -1.73 ± 0.43 |
| UUUUAGCAAUAUUACGUAUC | – | -2.56 ± 0.33 |
| UUUUAGCAAUAUUACGUCAU | -3 ± 0.28 | -1.47 ± 0.29 |
| UUUUAGCAAUAUUACGUCUA | -0.819 ± 0.23 | -0.292 ± 0.2 |

Source: the supplement of paper PMC7877785
